{"source": "paper PMC11993163", "about": "“Structure-function studies of a nucleoplasmin isoform from Plasmodium falciparum” (The Journal of Biological Chemistry, 2025)", "key": {"assembled H2A/H2B dimer [1]": {"target": "T1, assembled H2A/H2B dimer (UniProt P06897 1-130; P02281 1-126)", "test": "AUC", "conditions": "both partners purified"}, "assembled H3/H4 tetramer [2]": {"target": "T2, assembled H3/H4 tetramer (UniProt P84233 1-136; P62799 1-103)", "T2 construct": "core histone H4, codon-optimized construct in pET21a(+), gift of Dr Curtis A. Davey, expressed without a fusion tag; the species of the histones is told nowhere; copies: 2 + 2", "test": "AUC", "conditions": "both partners purified"}, "assembled H2A/H2B dimer [3]": {"target": "T1, assembled H2A/H2B dimer", "test": "ITC", "conditions": "both partners purified"}, "assembled H3/H4 tetramer [4]": {"target": "T2, assembled H3/H4 tetramer", "test": "ITC", "conditions": "both partners purified"}, "[5]": {"target": "the molecule itself", "test": "AUC; sedimentation velocity, Optima AUC, absorbance at 280 nm 0.2-0.5, continuous size distribution (SEDFIT); PfNPM proteins alone and their histone complexes"}, "[6]": {"target": "the molecule itself", "test": "crystal structure; PfNPM NTD at 57 mg/ml, 0.2 M sodium malonate pH 5.0, 20% PEG3350; 3.25 Å, space group P3(1)21, five chains in the asymmetric unit"}}, "data": [{"binder": "PfNPM A3 (residues 1-170, up to A3 acidic tract) (domain or fragment, Plasmodium falciparum, UniProt C0H4U4 1-170, looked up, PfNPM, nucleoplasmin isoform of Plasmodium falciparum, PlasmoDB PF3D7_0813300, UniProtKB C0H4U4, residues 1-170 (NTD and acidic tracts A1 to A3); pET28a(+) NcoI/XhoI, noncleavable C-terminal hexa-histidine tag; Pentamer by SV-AUC, SAXS and cryo-EM 2D class averages; also called PfNPM (1-170); not shown: His6, C-terminal, kept) MFYGKVVKPDETVVPEVKDGYSVIHLSRACLNNPEHEGKIYVQVEDGNGCYNICCLQKNVCEDTPLDIFLMLDNDVKIKTSGSSNEVHIVGYYEVSFGQDNLDEDEDEFEDEFDNDEVRMLTKKNTLKNSLSNGISKRKKNLENNEDDETNVGRNDEDDDDEDDEDDEDE", "values": [{"measurement": "stoichiometry N", "setting": "assembled H2A/H2B dimer [1]", "result": "1 PfNPM pentamer : H2A/H2B dimer"}, {"measurement": "stoichiometry N", "setting": "assembled H3/H4 tetramer [2]", "result": "1 PfNPM pentamer : H3/H4 tetramer"}, {"measurement": "Kd", "setting": "assembled H2A/H2B dimer [3]", "result": "1000 ± 68.2", "unit": "nM"}, {"measurement": "stoichiometry N", "setting": "assembled H2A/H2B dimer [3]", "result": 1}, {"measurement": "Kd", "setting": "assembled H3/H4 tetramer [4]", "result": "38.9 ± 2.2", "unit": "nM"}, {"measurement": "stoichiometry N", "setting": "assembled H3/H4 tetramer [4]", "result": 1}, {"measurement": "stoichiometry N", "setting": "[5]", "result": 5}]}, {"binder": "PfNPM NTD (Plasmodium falciparum nucleoplasmin N-terminal core domain, residues 1-98) (domain or fragment, UniProt C0H4U4 1-98, looked up, PfNPM, nucleoplasmin isoform of Plasmodium falciparum, PlasmoDB PF3D7_0813300, UniProtKB C0H4U4, residues 1-98 of the 315-residue full length; Cloned into pET28a(+) between NcoI and XhoI with a noncleavable C-terminal hexa-histidine tag; Pentamer by crystal structure, SV-AUC and SAXS; also called PfNPM NTD (1-98); not shown: His6, C-terminal, kept) MFYGKVVKPDETVVPEVKDGYSVIHLSRACLNNPEHEGKIYVQVEDGNGCYNICCLQKNVCEDTPLDIFLMLDNDVKIKTSGSSNEVHIVGYYEVSFG", "values": [{"measurement": "stoichiometry N", "setting": "[6]", "result": 5}]}, {"binder": "PfNPM A1 (residues 1-110, up to A1 acidic tract) (domain or fragment, Plasmodium falciparum, UniProt C0H4U4 1-110, looked up, PfNPM, nucleoplasmin isoform of Plasmodium falciparum, PlasmoDB PF3D7_0813300, UniProtKB C0H4U4, residues 1-110 (NTD and A1 acidic tract); pET28a(+) NcoI/XhoI, noncleavable C-terminal hexa-histidine tag; Pentamer by SV-AUC and SAXS; also called PfNPM (1-110); not shown: His6, C-terminal, kept) MFYGKVVKPDETVVPEVKDGYSVIHLSRACLNNPEHEGKIYVQVEDGNGCYNICCLQKNVCEDTPLDIFLMLDNDVKIKTSGSSNEVHIVGYYEVSFGQDNLDEDEDEFE", "values": [{"measurement": "stoichiometry N", "setting": "assembled H2A/H2B dimer [1]", "result": "1 PfNPM pentamer : H2A/H2B dimer"}, {"measurement": "stoichiometry N", "setting": "assembled H3/H4 tetramer [2]", "result": "1 PfNPM pentamer : H3/H4 tetramer"}, {"measurement": "Kd", "setting": "assembled H2A/H2B dimer [3]", "result": "1010 ± 68.6", "unit": "nM"}, {"measurement": "stoichiometry N", "setting": "assembled H2A/H2B dimer [3]", "result": 1}, {"measurement": "Kd", "setting": "assembled H3/H4 tetramer [4]", "result": "58.5 ± 1.76", "unit": "nM"}, {"measurement": "stoichiometry N", "setting": "assembled H3/H4 tetramer [4]", "result": 1}, {"measurement": "stoichiometry N", "setting": "[5]", "result": 5}]}]}
